Source: article PMC9953321

Target: eRF1 (not stated (S. cerevisiae or human protein prepared)) (UniProt P12385)
UniProt P12385, sequence (P12385 whole entry): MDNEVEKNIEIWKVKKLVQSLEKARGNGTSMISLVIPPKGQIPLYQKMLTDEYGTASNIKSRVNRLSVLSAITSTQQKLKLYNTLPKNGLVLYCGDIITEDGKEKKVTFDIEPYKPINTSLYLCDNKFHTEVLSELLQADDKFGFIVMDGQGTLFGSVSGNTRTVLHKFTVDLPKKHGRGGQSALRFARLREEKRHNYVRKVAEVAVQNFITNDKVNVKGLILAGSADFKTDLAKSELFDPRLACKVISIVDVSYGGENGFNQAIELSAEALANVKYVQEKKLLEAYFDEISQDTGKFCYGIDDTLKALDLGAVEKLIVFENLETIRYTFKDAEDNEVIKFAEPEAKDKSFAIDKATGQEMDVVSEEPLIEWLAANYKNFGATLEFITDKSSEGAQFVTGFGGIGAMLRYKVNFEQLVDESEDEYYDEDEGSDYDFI

eRF3, sequence (P05453 whole entry): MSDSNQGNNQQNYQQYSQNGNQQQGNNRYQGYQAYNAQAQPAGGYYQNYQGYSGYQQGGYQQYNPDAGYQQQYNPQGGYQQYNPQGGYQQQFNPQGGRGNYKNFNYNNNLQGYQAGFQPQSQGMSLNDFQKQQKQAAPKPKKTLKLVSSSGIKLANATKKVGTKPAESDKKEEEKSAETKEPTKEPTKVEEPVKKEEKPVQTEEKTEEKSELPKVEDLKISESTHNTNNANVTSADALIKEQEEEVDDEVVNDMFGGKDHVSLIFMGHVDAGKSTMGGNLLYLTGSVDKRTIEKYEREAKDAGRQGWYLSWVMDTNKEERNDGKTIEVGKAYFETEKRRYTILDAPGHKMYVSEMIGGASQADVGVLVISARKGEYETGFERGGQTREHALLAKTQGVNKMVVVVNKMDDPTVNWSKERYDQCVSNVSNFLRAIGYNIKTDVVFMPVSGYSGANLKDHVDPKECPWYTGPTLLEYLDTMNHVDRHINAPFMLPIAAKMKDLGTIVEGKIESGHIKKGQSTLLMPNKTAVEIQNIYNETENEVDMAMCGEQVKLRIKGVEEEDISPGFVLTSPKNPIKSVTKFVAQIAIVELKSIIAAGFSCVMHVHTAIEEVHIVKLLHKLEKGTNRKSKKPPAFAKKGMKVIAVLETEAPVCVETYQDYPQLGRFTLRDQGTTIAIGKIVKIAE

formation of RFC at constant 0.8 µM eRF3 with 0.01 to 0.4 µM eRF1 ('early experiments' of the termination assay; how it was determined is not told): > 90%
Substance: eRF3 (from UniProt P05453 1-685) (natural protein)
